The values below come from paper PMC12219679, “High yield purification of an isoleucine zipper-modified CD95 ligand for efficient cell apoptosis initiation and with biotin or DNA-oligomer binding domain to probe ligand functionalization effects” (BMC Biotechnology, 2025).

“And” between values parts separate entries of the source, which are not always exact repeats. Equal entries are not always repeated.

One series addresses T1, FLAG-CD95L (Enzo) (UniProt P48023 130-281).
T1 construct: CD95 ligand (CD95L, Fas ligand), soluble commercial protein with a FLAG tag; No catalogue number is printed; source: bought: Enzo Life Sciences
T1 sequence (looked up): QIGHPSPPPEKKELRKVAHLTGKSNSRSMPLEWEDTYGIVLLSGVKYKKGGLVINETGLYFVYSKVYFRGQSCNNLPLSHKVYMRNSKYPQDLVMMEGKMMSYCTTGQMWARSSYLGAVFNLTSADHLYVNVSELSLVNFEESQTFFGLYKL
The series is described as follows: ELISA; CD95-His coated at 2 µg/ml in PBS overnight at 4 °C; biotin-IZ-CD95L or FLAG-CD95L 0.1 nM to 100 nM in 0.5% BSA/PBST, 2 h at r.t.; detected with anti-CD95L antibody and HRP secondary; 4-parameter logistic fit. As to conditions: both partners purified. In general terms: In an ELISA, binding on a coated surface is turned into a signal by an enzyme label.

Series [1] deals with the molecule itself. The series is described as follows: SEC; Superdex 75 10/300 GL (Fig. 3A) or ENrich SEC 70 10 x 300 (Fig. 3B, C); PBS pH 7.4, 0.3 ml/min; sizes from a standard curve of protein standards; peak shares from Gaussian fits.

B1: CD95-His (Sino Biological) (receptor, UniProt P25445 26-173, looked up)
chain: QVTDINSKGLELRKTVTTVETQNLEGLHHDGQFCHKPCPPGERKARDCTVNGDEPDCVPCQEGKEYTDKAHFSSKCRRCRLCDEGHGLEVEINCTRTQNTKCRCKPNFFCNSTVCEHCDPCTKCEHGIIKECTLTSNTKCKEEGSRSN
notes: CD95 (Fas, Apo-1), soluble commercial protein with a His tag; No catalogue number is printed; In the functional rows on Hela WT cells the CD95 is the endogenous receptor of the cells; this molecule stands for it; also called Fas; Apo-1; source: bought: Sino Biological
As for B1, in the series with FLAG-CD95L (Enzo), the affinity, expressed as Kd, was 11.3 nM.

B2: His-IZ-CD95L (His8-TEV-Cys-IZ-CD95L, secreted form without the IL2 signal peptide) (ligand)
chain: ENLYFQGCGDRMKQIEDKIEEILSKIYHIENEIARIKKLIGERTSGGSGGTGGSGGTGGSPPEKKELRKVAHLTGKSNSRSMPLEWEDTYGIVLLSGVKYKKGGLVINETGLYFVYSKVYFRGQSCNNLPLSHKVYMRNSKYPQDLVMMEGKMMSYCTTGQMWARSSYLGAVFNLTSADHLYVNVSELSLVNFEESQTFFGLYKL
notes: TEV protease cleavage site ENLYFQ, extra cysteine, isoleucine zipper (IZ, variant of the GCN4 leucine zipper) and linker; stands after the His8 tag in the printed insert; CD95 ligand (CD95L, Fas ligand, CD178, TNFSF6), human, extracellular domain, amino acids 137-281, without the stalk region; Origin: a designed isoleucine zipper joined to a natural stretch of CD95L; also called X-IZ-CD95L; …
For the molecule B2, in series [1], the stoichiometry N (in general, the number of molecules, sites or subunits per partner or assembly) is 3 and 2.
